Laboratory results from patent publication US20100035825A1.

Tests used:
[1] = biological target: purified recombinant procaspase 1 (human, Alexis Biochemicals) (human) (UniProt P29466); assay: co-immunoprecipitation of purified recombinant proteins (C/EBPβ peptides 200 µM), immunoblot, densitometry; reference C/EBPβ 216-253-HA-Ala217
[2] = biological target: purified recombinant procaspase 8 (human, Alexis Biochemicals) (human) (UniProt Q14790); assay: as above
[3] = biological target: purified recombinant procaspase 1 (human, Alexis Biochemicals) (human) (UniProt P29466); assay: co-immunoprecipitation of purified recombinant proteins (C/EBPβ peptides 200 µM), immunoblot, densitometry; reference C/EBPβ-HA-Ala217

Chain of purified recombinant procaspase 8 (human, Alexis Biochemicals) (human) (Q14790 217-479 limits assumed): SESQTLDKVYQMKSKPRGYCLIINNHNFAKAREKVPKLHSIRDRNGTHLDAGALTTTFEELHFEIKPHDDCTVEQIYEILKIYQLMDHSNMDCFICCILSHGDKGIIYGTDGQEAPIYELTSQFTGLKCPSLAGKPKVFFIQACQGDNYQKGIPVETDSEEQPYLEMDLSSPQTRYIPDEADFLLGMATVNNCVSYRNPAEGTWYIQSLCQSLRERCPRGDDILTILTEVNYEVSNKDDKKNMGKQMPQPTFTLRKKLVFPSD

Substance	fold more co-immunoprecipitated than the Ala^217 peptides (densitometry) [1] [fold]	fold more co-immunoprecipitated than the Ala^217 peptides (densitometry) [2] [fold]	fold more co-immunoprecipitated than the Ala^217 peptides (densitometry) [3] [fold]
C/EBPβ 216-253-HA-Glu^217	7	12	
C/EBPβ-HA-Glu^217 (from UniProt P28033 1-296)			7
